The values that follow come from paper PMC9573943, “Contribution of the 12–17 hydrophobic region of islet amyloid polypeptide in self-assembly and cytotoxicity” (Frontiers in Molecular Biosciences, 2022).

Bridge positions count the residues as written; N and C are the ends. Ends that are not written are not given here.

Data set [1] is described as follows: Peptide self-assembly under fully quiescent conditions (CD, ThT and ANS fluorescence, TEM, AFM). It is filed as physicochemical. The conditions noted are these: 50 μM peptide; for Assemblies observed by TEM after 48 h incubation: negative stain TEM; for Overall effect of the substitution on amyloid formation, in words: CD, ThT, ANS, TEM, compared with unmodified IAPP; for Incubation time at which the random coil to β-sheet conformational transition is seen (far-UV CD) / Secondary conformation / conformational transition over incubation (far-UV CD), in words: fully quiescent; for Incubation time at which the random coil to β-sheet conformational transition is seen (far-UV CD): microtubes, diluted to 25 μM for CD; for ThT fluorescence of incubated peptide, in words: diluted to 25 μM with 40 μM ThT; for Secondary conformation / conformational transition over incubation (far-UV CD), in words: up to 7 days. The method, then: Solutions were prepared by dissolving the peptide at a concentration of 50 μM in 20 mM Tris-HCl, pH 7.4, and were incubated at room temperature without agitation in 1.5 ml Eppendorf microtubes. For IAPP12-17, the lyophilized peptide was dissolved in 20 mM acetate pH 6.5 in the presence of 3% DMSO, or HFIP, at a final concentration of 500 μM and the peptide solution was incubated at 37 °C under constant rotational agitation.
At the indicating time of incubation, peptide solutions were diluted to 25 μM in presence of 40 μM ThT, or 25 μM 8-anilino-1-naphthalenesulfonic acid (ANS). Fluorescence was measured in 10-mm pathlength microcells using a PTI QuantaMaster spectrofluorometer. For ThT, excitation was set at 440 nm, and the emission spectrum from 450 to 550 nm was recorded. For ANS, the excitation was set at 355 nm, and the emission scan was recorded from 385 to 585 nm.
After incubation, peptide solutions were diluted in water to 25 μM and incorporated into a 2-mm path length quartz cell. For IAPP12-17, the solution was diluted to 150 μM. Far-UV CD spectra were recorded from 190 to 260 nm using a Jasco J-815 CD spectropolarimeter at 25°C. The wavelength step was set at 0.5 nm with an average time of 10 s per scan at each wavelength. Spectra were background-subtracted with buffer solution. Raw data were converted to mean residue ellipticity (MRE): MRE=Mean residue weight (g/mol)X CD signal (deg)/10 X pathlength (cm) X peptide concentration (g/mL)
After incubation, peptide solutions were diluted to 10 μM, or 100 μΜ for IAPP12-17, before being applied on glow-discharged carbon films on 300-mesh copper grids. Samples were adsorbed and negatively stained with 1.5% uranyl formate for 45 s. Images were recorded using a FEI Tecnai G2 Spirit Twin microscope operating at 120 kV and equipped with a Gatan Ultrascan scan 4,000 4k × 4k CCD camera system.
After incubation, peptide solutions were diluted in 1% acetic acid to a concentration of 7.5 μΜ. […] Images were recorded using Veeco/Bruker multimode AFM instrument using ScanAsyst-air mode with a silicon tip (2–12 nm tip radius, 0.4 N/m force) on a nitride lever. Images were taken at 0.977 Hz and 512 scan/min.

The subject of data set [2] is INS-1E cells. The data set can be described thus: Cell viability by resazurin reduction. It is filed as cell-based, Rat. The following applies: freshly dissolved peptide up to 50 μM, 24 h, at least five assays. The method, then:
(§1) Rat INS-1E cells were cultured in treated black-wall clear-bottom 96-well plates at a density of 25,000 cell/well in RPMI-1640 medium supplemented with 10% FBS, 2 mM L-glutamine, 100 U/ml penicillin, 100 μg/ml streptomycin, 10 mM HEPES, 1 mM sodium pyruvate and 50 μM β-mercaptoethanol. After 48 h of incubation at 37°C in 5% CO2, cells were treated with 50 μL of peptide freshly dissolved in 20 mM Tris-HCl, pH 7.4. […] Cell viability (%) was calculated from the ratio of the fluorescence of the treated cells to the vehicle-treated cells. Data of at least five assays performed with different peptide lots were averaged and expressed as the mean ± S.D. Statistical analysis was performed using Student’s t test, and statistically significant difference was established at (*) p < 0.05; (**) p < 0.005; (***) p < 0.0005. For Live/Dead viability assay, cells were plated in 12-well plates at density of 250,000 cell/well for 48 h before treatment with 25 μM peptide.
For orientation: Alamar Blue is a resazurin reagent that responds to reducing activity.

The nature of data set [3]: Kinetics of amyloid formation monitored by ThT fluorescence. It is filed as physicochemical. The conditions noted are these: 40 μM ThT, 20 mM Tris-HCl pH 7.4, 25°C, no agitation. Here is the method:
Aggregation mixtures were prepared by dissolving the lyophilized peptide at a concentration of 50 μM in 20 mM Tris-HCl, pH 7.4. Assays were performed at 25°C without stirring in sealed black-wall clear-bottom 96-well nonbinding surface plates with 100 μL/well. Final peptide concentrations were 12.5 and 25 μM, and thioflavin T (ThT) concentration was fixed at 40 μM. Fluorescence was measured every 10 min (excitation: 440 nm, emission: 485 nm) and data from triplicate wells were averaged, corrected by subtracting the blank control, and plotted as ThT fluorescence vs. time. Data were normalized with maximum ThT fluorescence intensity obtained for unmodified IAPP. Data were fitted to a sigmoidal Boltzmann model: Y=Yo+(Ymax−Yo)/1+e^−(T−T50)/ K where T 50 is the time required to reach half of the maximum fluorescence intensity, k is the apparent first-order constant, and Y max and Y 0 are the maximum and initial ThT fluorescence values. Lag time corresponds to T50 - 2/k. Data of at least six assays performed with different peptide lots were averaged and expressed as the mean ± S.D. Statistical analysis was performed using Student’s t test, and statistically significant difference between IAPP and analogs was established at (*) p < 0.05; (**) p < 0.005; (***) p < 0.0005.

Data set [4] relates to INS-1E cells. In words: Live/Dead viability assay (calcein-AM / ethidium homodimer-1, fluorescence microscopy). It is filed as cell-based, Rat. The following applies: 25 μM freshly solubilized peptide, 24 h, calcein-AM (green, live) and ethidium homodimer-1 (red, dead). The method, then: as §1
[5] abbreviates: 20 mM Tris-HCl pH 7.4, quiescent.
[6] abbreviates: 20 mM Tris-HCl pH 7.4, room temperature.

For the substance “A13G: full-length IAPP with Ala13 substituted by Gly (KCNTATCATQRLGNFLVHSSNNFGAILSSTNVGSNTY; disulfide 2-7; ends not checked; UniProt P10997 34-70, looked up, variant A13G)”, in data set [1] (setting [5]), the “Assemblies observed by TEM after 48 h incubation” value (“Assemblies observed by TEM” below) was “presence of fibrillar aggregates” and the “Overall effect of the substitution on amyloid formation, in words” value (shortened to “Overall effect of the substitution”) is “accelerates IAPP amyloid self-assembly”. Besides, in data set [1] (setting [6]), the “Incubation time at which the random coil to β-sheet conformational transition is seen (far-UV CD)” value (from here on “Incubation time at which the random coil”) is no more than 6 h. The “Cytotoxicity compared with unmodified IAPP, in words” value in the data set with INS-1E cells [2] is on record as “higher cytotoxicity compared to unmodified IAPP”.
For “A13P: full-length IAPP with Ala13 substituted by Pro (KCNTATCATQRLPNFLVHSSNNFGAILSSTNVGSNTY; disulfide 2-7; ends not checked; UniProt P10997 34-70, looked up, variant A13P)”, in data set [1] (setting [5]), the “Assemblies observed by TEM” value was “Prototypical fibrils” and the “Overall effect of the substitution” value is reported as “accelerated amyloid formation”. Also, in data set [1] (20 mM Tris-HCl pH 7.4, quiescent, diluted to 25 μM with 40 μM ThT or 25 μM ANS), the “Incubation time at which ThT and ANS positive signal arises” value was found to be 6 h. Further, the “Incubation time at which the random coil” value in data set [1] (setting [6]) was determined as 4 h. Also, the “Cytotoxicity compared with unmodified IAPP, in words” value with INS-1E cells [2] is “increased the cytotoxicity of IAPP at 12.5 and 25 μM”.
On to “F15P: full-length IAPP with Pro at position Phe15 (KCNTATCATQRLANPLVHSSNNFGAILSSTNVGSNTY; disulfide 2-7; ends not checked; UniProt P10997 34-70, looked up, variant F15P)”, for which, in data set [1] (setting [5]), the “Assemblies observed by TEM” value is recorded as “absence fibrillar aggregates”. For the same substance, the “Assemblies observed by AFM after 96 h incubation” value in data set [1] (20 mM Tris-HCl pH 7.4, room temperature, no agitation, 96 h) was “typical fibrils”.
Regarding “L12A: full-length IAPP with Leu→Ala substitution at position 12 (KCNTATCATQRAANFLVHSSNNFGAILSSTNVGSNTY; disulfide 2-7; ends not checked; UniProt P10997 34-70, looked up, variant L12A)”, in data set [1] (setting [5]), the “Assemblies observed by TEM” value is “long and twisted fibrils”; the “ThT fluorescence of incubated peptide, in words” value is recorded as “absence of a ThT-signal”. Moreover, the “ANS fluorescence of incubated peptide, in words” value in data set [1] (20 mM Tris-HCl pH 7.4, quiescent, diluted to 25 μM with 25 μM ANS) is “low ANS fluorescence”. For the same substance, in data set [1] (setting [6]), the “Secondary conformation / conformational transition over incubation (far-UV CD), in words” value is reported as “remained mainly under a random coil structure after a week of incubation”. Moreover, the “Increase of ThT fluorescence signal” value in data set [3] (12.5 μM peptide) is “no increase of ThT fluorescence signal could be detected”. Besides, in data set [3] (25 μM peptide, nonbinding surface 96-well plate, read every 10 min, lag time = T50 - 2/k, mean ± S.D. of at least six assays), the “Lag time of amyloid formation” value is 13.5 ± 4.1 h. Also, the “Cytotoxicity compared with unmodified IAPP, in words” value in the data set with INS-1E cells [2] is listed as “reduced IAPP toxicity”. In addition, the “Cell death in Live/Dead assay, in words” value in the data set with INS-1E cells [4] is reported as “decreased toxicity compared to unmodified IAPP”.
Consider “L16P: full-length IAPP with Leu16 substituted by Pro (KCNTATCATQRLANFPVHSSNNFGAILSSTNVGSNTY; disulfide 2-7; ends not checked; UniProt P10997 34-70, looked up, variant L16P)”, for which, in data set [1] (setting [5]), the “Overall effect of the substitution” value is recorded as “completely inhibited amyloid formation”; the “ThT fluorescence of incubated peptide, in words” value was “absence of a ThT and ANS signal”. In data set [1] (setting [6]), the “Secondary conformation / conformational transition over incubation (far-UV CD), in words” value is “random coil conformation observed after 7 days incubation”. The “Cytotoxicity compared with unmodified IAPP, in words” value with INS-1E cells [2] is on record as “less cytotoxic than unmodified IAPP”.
As for “N14P: full-length IAPP with Pro at position Asn14 (KCNTATCATQRLAPFLVHSSNNFGAILSSTNVGSNTY; disulfide 2-7; ends not checked; UniProt P10997 34-70, looked up, variant N14P)”, in data set [1] (setting [6]), the “Incubation time at which the random coil” value was found to be 24 h. For the same substance, the “Assemblies observed by AFM after 24 h incubation” value in data set [1] (20 mM Tris-HCl pH 7.4, room temperature, no agitation, 24 h) was “dense network of fibrils”.
